From patent US20230212587A1, “Mutant Hydroxyphenylpyruvate Dioxygenase Polypeptide, Encoding Gene Thereof and Use Therefor” (Beijing Dabeinong Biotechnology Co., Ltd., priority 2019, published 2023)

Key:
[1] = tested on: Arabidopsis thaliana T1 plants; experiment: Topramezone tolerance of transgenic Arabidopsis thaliana T1 plants (pesticide damage grade by bleached leaf area, score, resistance evaluation); assay type: in vivo; details: for Resistance evaluation: HPPD F372V mutants, Table 7; for Grade 0 (number of plants) / Grade 1 (number of plants) / Grade 2 (number of plants) / Grade 3 (number of plants) / Resistance Grade / score: mutation combination, Table 8
Outline: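 Herbicide tolerance was judged per plant on a bleaching scale (grade 0 no bleaching to grade 3 fully bleached) 7 DAT. Topramezone doses were 0, 25, 50 and 100 g ai/ha on 18-day-old T1 and wild-type plants.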

soybean T1 plants = experiment: Herbicide tolerance of transgenic soybean T1 plants to topramezone; assay type: in vivo; details: topramezone 50 and 100 g ai/ha, 7 DAT, compared to control vector DBN11375NN and wild-type
Source text: The Arabidopsisthaliana T1 plants into which the AsHPPDm-F372A-02 nucleotide sequence was introduced, Arabidopsis thaliana T1 plants into which the AsHPPD-02 nucleotide sequence was introduced and wild-type Arabidopsisthaliana plants (18 days after sowing) were sprayed with topramezone at four different concentrations, i.e., 25 g ai/ha (one-fold field concentration, 1×), 50 g ai/ha (two-fold field concentration, 2×), 100 g ai/ha (four-fold field concentration, 4×) and 0 g ai/ha (water, 0×) to determine the tolerance of Arabidopsisthaliana to the herbicide. The degree of damage caused by the herbicide was measured for each plant according to the proportion of bleached leaf area (the proportion of bleached leaf area=bleached leaf area/total leaf area×100%) 7 days after spraying (7 DAT): the case where there is basically no bleached phenotype is defined as grade 0, the case where the proportion of bleached leaf area is less than 50% is defined as grade 1,the case where the proportion of bleached leaf area is more than 50% is defined as grade 2, and the case where the proportion of bleached leaf area is 100% grade is defined as grade 3.
The soybean T1 plants into which the AsHPPDm-F372A-02 nucleotide sequence was introduced, soybean T1 plants into which the ZmHPPDm-F372A-02 nucleotide sequence was introduced, soybean T1 plants into which the PfHPPDm-F372A-02 nucleotide sequence was introduced, soybean T1 plants into which the AsHPPDm-F372A-A110 nucleotide sequence was introduced, soybean T1 plants into which, the PfHPPDm-F372A-G413W nucleotide sequence was introduced, soybean T1 plants into which the control vector DBN11375NN was introduced and wild-type soybean plants (V3-V4 at seedling stage) were sprayed with topramezone at two different concentrations respectively, i.e. 50 g ai/ha (2-fold field concentration, 2 ×) and 100 g ai/ha (4-fold field concentration, 4 ×) to detect the herbicide tolerance of soybean plants. According to the method in point 6 of Example 1, after 7 days of spraying (7 DAT), the damage degree of each plant by the herbicide was statistically analyzed, and the scoring and resistance evaluation were carried out accordingly. The soybean plants into which the AsHPPDm-F372A-02 nucleotide sequence was introduced were of two strains in total (S1 and S2), the soybean plants into which the ZmHPPDm-F372A-02 nucleotide sequence was introduced were of two strains in total (S3 and S4), the soybean plants into which the PfHPPDm-F372A-02 nucleotide sequence was introduced were of two strains in total (S5 and S6), the soybean plants into which the AsHPPDm-F372A-Al 10 nucleotide sequence was introduced were of two strains in total (S7 and S8), the soybean plants into which the PfHPPDm-F372A-G413W nucleotide sequence was introduced were of two strains in total (S9 and S10), the soybean plants into which the control vector DBN11375NN nucleotide sequence was introduced were of one strain in total (S11), and the wild-type soybean plants were of one strain in total (CK1); and 8 plants were selected from each strain and detected.

Molecule	Resistance evaluation ([1]; topramezone 25 g ai/ha (1x))	Resistance evaluation ([1]; topramezone 100 g ai/ha (4x))	Grade 0 (number of plants) ([1]; topramezone 25 g ai/ha)	Grade 1 (number of plants) ([1]; topramezone 25 g ai/ha)	Grade 2 (number of plants) ([1]; topramezone 25 g ai/ha)	Grade 3 (number of plants) ([1]; topramezone 25 g ai/ha)	Resistance Grade ([1]; topramezone 25 g ai/ha)	score ([1]; topramezone 25 g ai/ha)	Grade 0 (number of plants) ([1]; topramezone 100 g ai/ha)	Grade 1 (number of plants) ([1]; topramezone 100 g ai/ha)	Grade 2 (number of plants) ([1]; topramezone 100 g ai/ha)	Grade 3 (number of plants) ([1]; topramezone 100 g ai/ha)	Resistance Grade ([1]; topramezone 100 g ai/ha)	score ([1]; topramezone 100 g ai/ha)	tolerance to topramezone, in words (soybean T1 plants)
TaHPPDm-F372V: Triticum aestivum HPPD mutant F372V, SEQ ID NO: 353 (protein, TaHPPDm-F372V Amino Acid Sequence) MPPTPTTPAATGAGAAAAVTPEHARPRRMVRFNPRSDRFHTLSFHHVEFWCADAASAAGRFAFALGAPLAARSDLSTGNSVHASQLLRSGNLAFLFTAPYANGCDAATASLPSFSADAARRFSADHGLAVRSIALRVADAAEAFRASVDGGARPAFSPVDLGRGFGFAEVELYGDVVLRFVSHPDGTDVPFLPGFEGVSNPGAVDYGLTRFDHVVGNVPELASAAAYVAGFTGFHEFAEFTTEDVGTAESGLNSMVLANNSEGVLLPLNEPVHGTKRRSQIQTFLEHHGGPGVQHIAVASSDVLRTLREMRARSAMGGFDFLPPPLPKYYEGVRRIAGDVLSEAQIKECQELGVLVDRDDQGVLLQIVTKPVGDRPTLFLEMIQRIGCMEKDERGEEYQKGGCGGFGKGNFSELFKSIEDYEKSLEAKQSAAVQGS	Highly resistant	Moderately resistant													
GsHPPDm-F372V: Gossypium hirsutum HPPD mutant F372V, SEQ ID NO: 351 (protein, GsHPPDm-F372V Amino Acid Sequence) MVQTNQSGSGNDFKLVGFSNFVRSNPKSDRFTVKRFHHIEFWCTDATNVARRFSWGLGMQFVAKSDLSTGNLTHASYLLRSRDLNFLFTAPYSPSIAVAQNLSPQSTASIPSFDHSLCRSFAATHGLGVRAIAIEVDDAETAFTTSVTHGALPFCPPTPLGDVATIAEVKLYGDVVLRYVSYTTTINSDHDFLPGFEKIEDTLSYPLDYGLRRLDHAVGNVPELGPAVSYVKSFTGFHEFAEFTAEDVGTSESGLNSVVLANNEEMVLLPMNEPVFGTKRKSQIQTYLEHNEGAGVQHLALVSEDIFKTLREMRKRSFVGGFEFMPSPPPTYYKKLKQRAGDILSDEQIKECEELGILVDRDDQGTLLQIVTKPVGDRPTIFIEIIQRIGCMVKDEEGKQYQKGGCGGFGKGNFSELFKSIEEYEKSLEAKQSQNP	Moderately resistant	Non-resistant													
PfHPPDm-F372A-G413W: Pseudomonas fluorescens HPPD with F372A and G336W (position 413 of SEQ ID NO: 1), SEQ ID NO: 416 (protein, PfHPPDm-F372A-G413W Amino Acid Sequence) MADLYENPMGLMGFEFIEFASPTPGTLEPIFEIMGFTKVATHRSKNVHLYRQGEINLILNNEPNSIASYFAAEHGPSVCGMAFRVKDSQKAYNRALELGAQPIHIDTGPMELNLPAIKGIGGAPLYLIDRFGEGSSIYDIDFVYLEGVERNPVGAGLKVIDHLTHNVYRGRMVYWANFYEKLFNFREARYFDIKGEYTGLTSKAMSAPDGMIRIPLNEESSKGAGQIEEFLMQFNGEGIQHVAFLTDDLVKTWDALKKIGMRFMTAPPDTYYEMLEGRLPDHGEPVDQLQARGILLDGSSVEGDKRLLLQIASETLMGPVFFEFIQRKGDDGFGEWNFKALFESIERDQVRRGVLTAD			20	0	0	0	Highly resistant	0	20	0	0	0	Highly resistant	0	higher tolerance
